# Source: paper PMC10397247
# T1: 4H2458-AA
# T1 chain: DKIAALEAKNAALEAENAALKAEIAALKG
# T2: APC1015-AA
# T2 chain: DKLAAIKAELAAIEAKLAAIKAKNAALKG
# T3: APC1434-AA
# T3 chain: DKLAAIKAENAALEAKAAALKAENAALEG
# T4: 4H733-AA
# T4 chain: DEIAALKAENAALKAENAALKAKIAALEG
# T5: APC3645-AA
# T5 chain: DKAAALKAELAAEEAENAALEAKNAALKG
# T6: APC4011-AA
# T6 chain: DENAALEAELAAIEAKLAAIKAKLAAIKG
# T7: 4H807-AA
# T7 chain: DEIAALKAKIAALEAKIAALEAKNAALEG
# T8: APC9096-AA
# T8 chain: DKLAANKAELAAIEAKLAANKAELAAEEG
# T9: APC9319-AA
# T9 chain: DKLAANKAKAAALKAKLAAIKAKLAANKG
# T10: APC8910-AA
# T10 chain: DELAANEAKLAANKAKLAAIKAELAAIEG
# T11: APC5383-AA
# T11 chain: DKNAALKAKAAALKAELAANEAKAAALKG
# T12: APC4436-AA
# T12 chain: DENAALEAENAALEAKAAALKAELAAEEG
# T13: APC7099-AA
# T13 chain: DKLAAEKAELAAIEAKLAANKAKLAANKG
# T14: APC4264-AA
# T14 chain: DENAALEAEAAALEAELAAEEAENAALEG
# T15: APC2405-AA
# T15 chain: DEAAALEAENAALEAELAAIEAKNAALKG
# T16: APC2237-AA
# T16 chain: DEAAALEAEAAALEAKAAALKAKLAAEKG
# T17: APC6108-AA
# T17 chain: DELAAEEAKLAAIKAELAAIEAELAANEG
# T18: APC8191-AA
# T18 chain: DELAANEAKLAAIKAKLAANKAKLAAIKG
# T19: 4H716-AA
# T19 chain: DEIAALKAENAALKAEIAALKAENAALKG
# T20: 4H3330-AA
# T20 chain: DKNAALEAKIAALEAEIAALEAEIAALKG
# T21: APC232-AA
# T21 chain: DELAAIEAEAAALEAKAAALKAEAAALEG
# T22: O16-bP
# T22 chain: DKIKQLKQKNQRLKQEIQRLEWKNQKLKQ
# T23: O3-bP
# T23 chain: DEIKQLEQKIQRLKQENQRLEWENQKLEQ
# T24: O5-bP
# T24 chain: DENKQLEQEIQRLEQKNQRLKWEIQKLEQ
# T25: O14-bP
# T25 chain: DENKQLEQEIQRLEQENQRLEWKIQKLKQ
# T26: O6-bP
# T26 chain: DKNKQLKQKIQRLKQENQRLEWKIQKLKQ
# T27: O4-bP
# T27 chain: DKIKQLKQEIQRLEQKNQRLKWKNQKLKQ
# T28: O9-bP
# T28 chain: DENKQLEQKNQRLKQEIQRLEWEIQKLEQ
# T29: O7-bP
# T29 chain: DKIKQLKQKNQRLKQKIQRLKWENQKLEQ
# T30: O2-bP
# T30 chain: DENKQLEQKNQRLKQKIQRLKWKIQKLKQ
# T31: O8-bP
# T31 chain: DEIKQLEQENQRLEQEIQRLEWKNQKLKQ
# T32: O15-bP
# T32 chain: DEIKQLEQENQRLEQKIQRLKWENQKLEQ
# Tests used:
# 4H2458-AA = target: T1, 4H2458-AA; experiment: two-hybrid library CCmax;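 also: natural log of median RNA to DNA barcode read ratio; higher means stronger binding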
# APC1015-AA = target: T2, APC1015-AA; experiment: two-hybrid library CCmax; conditions: mean of both orientations;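 also: natural log of median RNA to DNA barcode read ratio; higher means stronger binding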
# APC1434-AA = target: T3, APC1434-AA; experiment: two-hybrid library CCmax; conditions: mean of both orientations;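 also: natural log of median RNA to DNA barcode read ratio; higher means stronger binding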
# 4H733-AA = target: T4, 4H733-AA; experiment: two-hybrid library CCmax; conditions: mean of both orientations;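 also: natural log of median RNA to DNA barcode read ratio; higher means stronger binding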
# APC3645-AA = target: T5, APC3645-AA; experiment: two-hybrid library CCmax; conditions: mean of both orientations;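 also: natural log of median RNA to DNA barcode read ratio; higher means stronger binding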
# APC4011-AA = target: T6, APC4011-AA; experiment: two-hybrid library CCmax; conditions: mean of both orientations;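 also: natural log of median RNA to DNA barcode read ratio; higher means stronger binding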
# 4H807-AA = target: T7, 4H807-AA; experiment: two-hybrid library CCmax; conditions: mean of both orientations
# APC9096-AA = target: T8, APC9096-AA; experiment: two-hybrid library CCmax; conditions: mean of both orientations
# APC9319-AA = target: T9, APC9319-AA; experiment: two-hybrid library CCmax; conditions: mean of both orientations
# APC8910-AA = target: T10, APC8910-AA; experiment: two-hybrid library CCmax; conditions: mean of both orientations
# APC5383-AA = target: T11, APC5383-AA; experiment: two-hybrid library CCmax; conditions: mean of both orientations
# APC4436-AA = target: T12, APC4436-AA; experiment: two-hybrid library CCmax; conditions: mean of both orientations
# APC7099-AA = target: T13, APC7099-AA; experiment: two-hybrid library CCmax; conditions: mean of both orientations
# APC4264-AA = target: T14, APC4264-AA; experiment: two-hybrid library CCmax; conditions: mean of both orientations
# APC2405-AA = target: T15, APC2405-AA; experiment: two-hybrid library CCmax; conditions: mean of both orientations
# APC2237-AA = target: T16, APC2237-AA; experiment: two-hybrid library CCmax; conditions: mean of both orientations
# APC6108-AA = target: T17, APC6108-AA; experiment: two-hybrid library CCmax; conditions: mean of both orientations
# APC8191-AA = target: T18, APC8191-AA; experiment: two-hybrid library CCmax; conditions: mean of both orientations
# 4H716-AA = target: T19, 4H716-AA; experiment: two-hybrid library CCmax; conditions: mean of both orientations
# 4H3330-AA = target: T20, 4H3330-AA; experiment: two-hybrid library CCmax; conditions: mean of both orientations
# APC232-AA = target: T21, APC232-AA; experiment: two-hybrid library CCmax; conditions: mean of both orientations
# O16-bP = target: T22, O16-bP; experiment: two-hybrid library CCNG1
# O3-bP = target: T23, O3-bP; experiment: two-hybrid library CCNG1
# O5-bP = target: T24, O5-bP; experiment: two-hybrid library CCNG1
# O14-bP = target: T25, O14-bP; experiment: two-hybrid library CCNG1
# O6-bP = target: T26, O6-bP; experiment: two-hybrid library CCNG1
# O4-bP = target: T27, O4-bP; experiment: two-hybrid library CCNG1
# O9-bP = target: T28, O9-bP; experiment: two-hybrid library CCNG1
# O7-bP = target: T29, O7-bP; experiment: two-hybrid library CCNG1
# O2-bP = target: T30, O2-bP; experiment: two-hybrid library CCNG1
# O8-bP = target: T31, O8-bP; experiment: two-hybrid library CCNG1
# O15-bP = target: T32, O15-bP; experiment: two-hybrid library CCNG1
binder,measurement,setting,value
DKIAALEAKNAALEAENAALKAEIAALKG [4H2458-AA],interaction score,4H2458-AA,2.24
same,interaction score,APC1015-AA,-1.95
same,interaction score,APC1434-AA,-1.22
same,interaction score,4H733-AA,-1.61
same,interaction score,APC3645-AA,-1.47
same,interaction score,APC4011-AA,-0.914
same,interaction score,4H807-AA,-1.17
same,interaction score,APC9096-AA,-1.34
same,interaction score,APC9319-AA,-2.07
same,interaction score,APC8910-AA,-1.49
same,interaction score,APC5383-AA,-1.7
same,interaction score,APC4436-AA,-1.67
same,interaction score,APC7099-AA,-1.31
same,interaction score,APC4264-AA,-1.79
same,interaction score,APC2405-AA,-1.59
same,interaction score,APC2237-AA,-1.44
same,interaction score,APC6108-AA,-1.71
same,interaction score,APC8191-AA,-2.11
same,interaction score,4H716-AA,-0.991
same,interaction score,4H3330-AA,-1.38
same,interaction score,APC232-AA,-1.85
DENKQLEQEIQRLEQENQRLEWKIQKLKQ [O14-bP],interaction score,O16-bP,1.73
same,interaction score,O3-bP,-0.787
same,interaction score,O5-bP,1.11
same,interaction score,O14-bP,-1.46
same,interaction score,O6-bP,1.82
same,interaction score,O4-bP,-1.04
same,interaction score,O9-bP,-0.215
same,interaction score,O7-bP,0.0513
same,interaction score,O2-bP,-0.77
same,interaction score,O8-bP,-2.05
same,interaction score,O15-bP,-0.0315
